# Positions count from the first letter of the chain named. Names and notes keep the numbering of the source. Values joined by “and” are separate entries in the source; they are usually repeats but may differ in a detail not shown here. Equal values may be shown once.
# T1: LAG3-ECD-His (human, UniProt P18627 23-450)
# T1 construct: extracellular domain; Bought; not shown: polyhistidine tag
# T1 sequence (looked up): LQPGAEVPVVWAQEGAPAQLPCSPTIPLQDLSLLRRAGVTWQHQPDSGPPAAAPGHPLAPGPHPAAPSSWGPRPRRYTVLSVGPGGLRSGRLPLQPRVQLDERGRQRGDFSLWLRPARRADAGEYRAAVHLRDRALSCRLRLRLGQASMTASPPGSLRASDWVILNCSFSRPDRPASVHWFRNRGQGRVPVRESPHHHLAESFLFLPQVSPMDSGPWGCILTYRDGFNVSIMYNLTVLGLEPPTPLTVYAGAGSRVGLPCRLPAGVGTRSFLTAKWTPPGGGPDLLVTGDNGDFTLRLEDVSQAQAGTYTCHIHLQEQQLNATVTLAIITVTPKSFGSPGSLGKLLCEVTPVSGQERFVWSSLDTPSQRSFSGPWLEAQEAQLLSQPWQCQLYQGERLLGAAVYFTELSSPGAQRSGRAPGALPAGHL
# T2: VEGF165-His (human, UniProt P15692-4 27-191)
# T2 construct: also called Human VEGF165 with a 6*His tag
# T2 sequence: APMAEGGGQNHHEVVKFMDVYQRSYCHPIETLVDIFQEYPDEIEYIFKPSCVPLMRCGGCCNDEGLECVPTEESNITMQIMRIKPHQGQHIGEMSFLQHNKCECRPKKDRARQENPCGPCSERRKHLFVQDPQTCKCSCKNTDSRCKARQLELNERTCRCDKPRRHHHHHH
# B1: 40-Fab-609-IgG4 (bispecific antibody)
# heavy: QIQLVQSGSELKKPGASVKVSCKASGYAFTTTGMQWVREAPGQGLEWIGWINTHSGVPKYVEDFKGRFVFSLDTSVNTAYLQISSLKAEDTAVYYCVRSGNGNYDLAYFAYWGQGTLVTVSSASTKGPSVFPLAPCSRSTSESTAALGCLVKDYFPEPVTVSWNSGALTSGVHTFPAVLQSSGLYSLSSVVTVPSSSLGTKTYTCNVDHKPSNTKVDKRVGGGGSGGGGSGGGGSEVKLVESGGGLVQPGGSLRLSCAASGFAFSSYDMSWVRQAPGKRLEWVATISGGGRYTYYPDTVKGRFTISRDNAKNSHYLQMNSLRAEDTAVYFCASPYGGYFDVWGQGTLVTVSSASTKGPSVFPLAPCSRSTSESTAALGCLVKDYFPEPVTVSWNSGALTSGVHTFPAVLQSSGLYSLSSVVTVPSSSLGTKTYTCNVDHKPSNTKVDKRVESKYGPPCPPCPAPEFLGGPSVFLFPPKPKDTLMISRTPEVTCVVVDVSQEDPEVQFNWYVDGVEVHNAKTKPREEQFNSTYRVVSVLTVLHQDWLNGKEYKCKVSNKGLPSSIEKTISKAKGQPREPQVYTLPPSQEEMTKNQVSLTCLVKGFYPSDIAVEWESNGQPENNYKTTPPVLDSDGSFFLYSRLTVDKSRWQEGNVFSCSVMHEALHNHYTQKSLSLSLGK
# light: EIVLTQSPATLSLSPGERATLSCRASQSISDYLHWYQQKPGQSPRLLIKYASHSISGIPARFSGSGSGSDFTLTISSLEPEDFAVYYCQHGHSFPWTFGQGTKVEIKRTVAAPSVFIFPPSDEQLKSGTASVVCLLNNFYPREAKVQWKVDNALQSGNSQESVTEQDSKDSTYSLSSTLTLSKADYEKHKVYACEVTHQGLSSPVTKSFNRGEC
# B2: 609-Fab-40-IgG4 (bispecific antibody)
# heavy: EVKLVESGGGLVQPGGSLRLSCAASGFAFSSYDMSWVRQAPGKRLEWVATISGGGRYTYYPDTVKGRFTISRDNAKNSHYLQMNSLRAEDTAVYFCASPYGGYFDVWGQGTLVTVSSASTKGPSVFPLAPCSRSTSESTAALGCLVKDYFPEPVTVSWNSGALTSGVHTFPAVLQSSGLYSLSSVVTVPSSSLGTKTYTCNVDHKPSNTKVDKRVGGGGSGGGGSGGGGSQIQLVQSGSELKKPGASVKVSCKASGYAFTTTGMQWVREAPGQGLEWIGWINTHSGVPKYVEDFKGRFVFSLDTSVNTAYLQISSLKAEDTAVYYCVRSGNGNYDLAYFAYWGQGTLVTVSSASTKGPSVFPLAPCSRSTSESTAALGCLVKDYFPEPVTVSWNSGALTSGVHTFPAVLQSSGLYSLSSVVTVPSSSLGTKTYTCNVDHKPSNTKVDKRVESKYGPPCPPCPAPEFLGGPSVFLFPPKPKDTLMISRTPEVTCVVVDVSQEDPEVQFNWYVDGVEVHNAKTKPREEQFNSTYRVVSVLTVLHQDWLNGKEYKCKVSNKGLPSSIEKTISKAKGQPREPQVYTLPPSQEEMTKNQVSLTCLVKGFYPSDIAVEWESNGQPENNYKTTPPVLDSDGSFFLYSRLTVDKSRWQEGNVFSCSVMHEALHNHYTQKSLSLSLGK
# light: B1 light
# B3: 5E7-Hu (antibody, human IgG4 S228P, kappa, V domains shown)
# VH: EVQLVESGGGLVKPGGSLRLSCAASGFTFSDDYMAWFRQAPGKRLEWVASISHGGDYIYYADNLKGRFTISRDNAKNSLYLQMNSLRAEDTAVYFCSRDRRSIDYWGQGTLVTVSS
# VL: DIQMTQSPSSLSASVGDRVTITCRASQDISNYLSWYQQKPGKTIKLLIYYTSRLHSGVPSRFSGSGSGTDYTFTISSLQPEDIATYFCQQGKTLPYTFGQGTKVEIKR
# notes: Humanized anti-human LAG-3, IgG4 (S228P), kappa; also called 5E7-Hu-HC+5E7-Hu-LC
# B4: 20-Hu-HC+601-LC (antibody, human IgG4 S228P, kappa, V domains shown)
# VH: EVQLVESGGGLVQPGGSLRLSCAASGFVFSNYDMSWVRQAPGKRLEWVATISGGGGYTYYSDSVKGRFTISRDNAKNSLYLQMNSLRAEDTAVYYCASPYGHYGFEYWGQGTLVTVSS
# VL: DIQMTQSPSSLSASVGDRVTITCSASQDISNYLNWYQQKPGKAPKVLIYFTSSLHSGVPSRFSGSGSGTDFTLTISSLQPEDFATYYCQQYSTVPWTFGQGTKVEIKR
# notes: Hybrid antibody
# B5: 601 (antibody, human IgG1, kappa, V domains shown)
# VH: EVQLVESGGGLVQPGGSLRLSCAASGYTFTNYGMNWVRQAPGKGLEWVGWINTYTGEPTYAADFKRRFTFSLDTSKSTAYLQMNSLRAEDTAVYYCAKYPHYYGSSHWYFDVWGQGTLVTVSS
# VL: B4 VL
# notes: Anti-VEGF, IgG1, kappa; also called Bevacizumab
# B6: 20-Hu (antibody, human IgG4 S228P, kappa, V domains shown)
# VH: B4 VH
# VL: B3 VL with R24S, D28G, Y32F, I44V, R53S, F87Y, G91Y, K92S, T93N, Y96W
# notes: Humanized anti-human PD-1, IgG4 (S228P), kappa; also called 20-Humanized; 20-Hu-HC+20-Hu-LC
# B7: 20-Hu-HC+601-LC-V94L (antibody, human IgG4 S228P, kappa, V domains shown)
# VH: B4 VH
# VL: B4 VL with V94L
# B8: 601-HC+601-LC-V94L (antibody, human IgG1, kappa, V domains shown)
# VH: B5 VH
# VL: B4 VL with V94L
# B9: 14-Hu (antibody, human IgG4 S228P, kappa, V domains shown)
# VH: QVQLVQSGAEVKKPGASVKVSCKASGYSFTGYTMNWVRQAPGQGLEWIGLINPYNGDTSYNQKFKGRATVTVDKSTSTAYMELSSLRSEDTAVYYCARWRYTMDYWGQGTLVTVSS
# VL: DIVLTQSPASLAVSPGQRATITCRASESVDNYGNSFMNWYQQKPGQPPKPLIYFASNLESGVPARFSGSGSRTDFTLTINPVEADDTANYYCQQNNEAPPTFGQGTKVEIKR
# notes: Humanized anti-PD-1, IgG4 (S228P), kappa; also called 14-Hu-HC+14-Hu-LC
# B10: mAb127-HC+14-Hu-LC (antibody, human IgG4 S228P, kappa, V domains shown)
# VH: QVQLVQSGAEVKKPGASVKVSCKASGYTFTSEWMNWVRQAPGQGLEWMGQIFPALGSTNYNEMYEGRVTMTTDTSTSTAYMELRSLRSDDTAVYYCARGIGNYALDAMDYWGQGTLVTVSS
# VL: B9 VL
# notes: Hybrid antibody
# B11: Anti-CD40-Hu (antibody, human IgG4 S228P, kappa, V domains shown)
# VH: QIQLVQSGSELKKPGASVKVSCKASGYAFTTTGMQWVREAPGQGLEWIGWINTHSGVPKYVEDFKGRFVFSLDTSVNTAYLQISSLKAEDTAVYYCVRSGNGNYDLAYFAYWGQGTLVTVSS
# VL: EIVLTQSPATLSLSPGERATLSCRASQSISDYLHWYQQKPGQSPRLLIKYASHSISGIPARFSGSGSGSDFTLTISSLEPEDFAVYYCQHGHSFPWTFGQGTKVEIKR
# notes: Humanized anti-human CD40, IgG4 (S228P), kappa; also called humanized MAb2.220
# B12: Anti-CD40-Hu-HC+609-LC (antibody, human IgG4 S228P, kappa, V domains shown)
# VH: B11 VH
# VL: EIVLTQSPATLSLSPGERATLSCRASQSISNFLHWYQQKPGQAPRLLIKYASQSISGIPARFSGSGSGTDFTLTISSLEPEDFAVYFCQQSNSWPHTFGQGTKVEIKR
# notes: Hybrid antibody
# B13: 14-Fab-127-IgG4 (bispecific antibody)
# heavy: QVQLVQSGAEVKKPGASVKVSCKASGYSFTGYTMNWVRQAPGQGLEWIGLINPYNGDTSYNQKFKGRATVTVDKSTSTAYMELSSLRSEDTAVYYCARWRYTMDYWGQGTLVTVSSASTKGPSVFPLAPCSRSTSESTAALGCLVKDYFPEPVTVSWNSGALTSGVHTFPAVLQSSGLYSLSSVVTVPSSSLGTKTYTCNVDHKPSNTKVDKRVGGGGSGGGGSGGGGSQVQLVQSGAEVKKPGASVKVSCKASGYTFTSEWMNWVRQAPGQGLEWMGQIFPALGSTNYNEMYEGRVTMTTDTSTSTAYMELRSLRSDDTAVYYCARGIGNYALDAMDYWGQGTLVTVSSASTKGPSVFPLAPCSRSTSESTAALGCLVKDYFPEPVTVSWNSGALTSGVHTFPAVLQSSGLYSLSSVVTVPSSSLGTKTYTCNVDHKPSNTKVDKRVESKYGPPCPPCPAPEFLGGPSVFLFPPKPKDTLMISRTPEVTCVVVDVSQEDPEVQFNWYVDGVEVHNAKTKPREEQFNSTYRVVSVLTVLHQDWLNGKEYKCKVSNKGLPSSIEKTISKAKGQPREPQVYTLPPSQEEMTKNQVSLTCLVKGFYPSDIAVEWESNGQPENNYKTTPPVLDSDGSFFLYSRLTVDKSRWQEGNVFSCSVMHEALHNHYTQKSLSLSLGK
# light: DIVLTQSPASLAVSPGQRATITCRASESVDNYGNSFMNWYQQKPGQPPKPLIYFASNLESGVPARFSGSGSRTDFTLTINPVEADDTANYYCQQNNEAPPTFGQGTKVEIKRTVAAPSVFIFPPSDEQLKSGTASVVCLLNNFYPREAKVQWKVDNALQSGNSQESVTEQDSKDSTYSLSSTLTLSKADYEKHKVYACEVTHQGLSSPVTKSFNRGEC
# Tests used:
# PD1-ECD-His = target: T3, PD1-ECD-His (human, UniProt Q15116 25-170); assay: ELISA, plate coated with PD1-ECD-His
# T3 construct: extracellular domain; Bought; also called recombinant protein of the extracellular segment of human PD-1 with a polyhistidine tag (Sino Biological 10377-H08H); not shown: polyhistidine tag
# T3 sequence (Q15116 25-170): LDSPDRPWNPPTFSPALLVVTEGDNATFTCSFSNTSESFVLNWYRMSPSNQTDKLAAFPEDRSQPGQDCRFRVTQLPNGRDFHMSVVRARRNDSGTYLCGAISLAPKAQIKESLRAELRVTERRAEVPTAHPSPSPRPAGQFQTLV
# CD40-ECD-His = target: T4, CD40-ECD-His (human, UniProt P25942 21-193); assay: ELISA, plate coated with CD40-ECD-His
# T4 construct: extracellular domain; Bought; also called recombinant protein of the extracellular segment of human CD40 with a polyhistidine tag (Sino Biological 10774-H08H); not shown: polyhistidine tag
# T4 sequence (P25942 21-193): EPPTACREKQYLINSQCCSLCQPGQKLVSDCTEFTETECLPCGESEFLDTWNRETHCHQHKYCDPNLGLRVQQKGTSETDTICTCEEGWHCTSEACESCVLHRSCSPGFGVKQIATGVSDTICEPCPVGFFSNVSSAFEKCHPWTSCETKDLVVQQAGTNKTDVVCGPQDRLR
# LAG3-ECD-His [1] = target: T1, LAG3-ECD-His; assay: ELISA, LAG3-ECD-His coated
# LAG3-ECD-His [2] = target: T1, LAG3-ECD-His; assay: ELISA, plate coated with LAG3-ECD-His
# VEGF165-His [3] = target: T2, VEGF165-His; assay: ELISA, VEGF165-His coated at 10 ng/well
# PD1-His [4] = target: T5, PD1-His (human, UniProt Q15116 25-170); assay: ELISA, plate coated with PD1-His
# T5 construct: extracellular domain; In-house protein; also called extracellular domain protein of human PD-1 with a 6*His tag
# T5 sequence (Q15116 other isoform, or with tags, fused parts or gaps): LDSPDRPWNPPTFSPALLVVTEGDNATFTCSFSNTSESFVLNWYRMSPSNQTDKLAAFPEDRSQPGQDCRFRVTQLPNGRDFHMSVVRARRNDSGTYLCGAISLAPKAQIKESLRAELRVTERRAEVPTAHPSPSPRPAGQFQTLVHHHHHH
# [5] = target: T6, biotinylated human PD-1 extracellular recombinant protein (Sino Biological, Cat. No. 10377-H08H-B) (human, UniProt Q15116 25-170, biotinylated); assay: bridging ELISA: VEGF165 coated, antibody titrated, biotinylated human PD-1 at 200 ng/ml and streptavidin-HRP for detection
# T6 construct: extracellular domain; Bought; detection reagent in the bridging ELISAs
# T6 sequence (Q15116 25-170): as the sequence (Q15116 25-170) above
# [6] = target: T7, recombinant VEGF165 (Acrobiosystems, Cat. No. VE5-H4210) (UniProt P15692-4 27-191); assay: as above
# T7 construct: Bought; construct not described
# PD1-His [7] = target: T5, PD1-His; assay: SPR, Biacore 8K, antibody captured on Protein A/G chip, PD1-His injected
# VEGF165-His [8] = target: T2, VEGF165-His; assay: SPR, Biacore 8K, antibody captured on Protein A/G chip, VEGF165-His injected
# [9] = target: T8, TGF-β1 (Sino Biological, Cat. No. 10804-HNAC) (UniProt P01137 279-390); assay: bridging ELISA: TGF-β1 coated, antibody titrated, biotinylated human PD-1 and streptavidin-HRP for detection
# T8 sequence (P01137 279-390 limits assumed): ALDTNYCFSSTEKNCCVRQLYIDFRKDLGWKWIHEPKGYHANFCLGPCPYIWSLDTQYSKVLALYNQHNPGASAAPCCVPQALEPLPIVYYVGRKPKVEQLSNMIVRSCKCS
# [10] = target: T6, biotinylated human PD-1 extracellular …; assay: as above
# [11] = target: T8, TGF-β1 (Sino Biological, Cat. No. …); assay: ELISA, plate coated with TGF-β1
# [12] = target: T6, biotinylated human PD-1 extracellular …; assay: bridging ELISA: plate coated with TGF-β1, antibody titrated, detected with biotinylated human PD-1 ECD and Streptavidin-HRP; antibody first captured on plate-coated TGF-β1
binder,measurement,setting,value
B1,EC50,PD1-ECD-His,1.02 nM
same,EC50,CD40-ECD-His,0.0956 nM
B2,EC50,PD1-ECD-His,0.172 nM
same,EC50,CD40-ECD-His,0.105 nM
B3,EC50 (read off the curve),LAG3-ECD-His [1],~0.1 nM
same,EC50,LAG3-ECD-His [2],0.147 nM
B4,binding result,VEGF165-His [3],no binding
same,EC50,PD1-His [4],0.625 nM and 0.975 nM
B5,binding result,[5],no binding
B6,binding result,VEGF165-His [3],no binding
same,EC50,PD1-His [4],0.206 nM
B7,binding result,[6],no binding
same,Kd,PD1-His [7],1.59 nM
same,koff,PD1-His [7],4.54e-05 s⁻¹
same,kon,PD1-His [7],28600 M⁻¹ s⁻¹
same,EC50,PD1-His [4],0.308 nM and 0.331 nM
B8,Kd,VEGF165-His [8],0.00746 nM
same,koff,VEGF165-His [8],2.91e-05 s⁻¹
same,kon,VEGF165-His [8],3.9e+06 M⁻¹ s⁻¹
B9,binding result,[9],no binding
same,EC50,PD1-His [4],0.392 nM and 0.432 nM
B10,binding result,[10],no binding
same,EC50,[11],0.0711 nM and 0.0803 nM
B11,binding result,PD1-ECD-His,no binding
same,EC50,CD40-ECD-His,0.11 nM
B12,binding result,PD1-ECD-His,no binding
same,binding result,CD40-ECD-His,no binding
B13,EC50,[12],0.278 nM
same,EC50,PD1-His [4],0.387 nM
same,EC50,[11],0.152 nM

# Reference: patent US20220259330A1 (SUNSHINE GUOJIAN PHARMACEUTICAL SHANGHAI, published 2022)
